According to US20230220057A1 (STAIDSON BEIJING BIOPHARMACEUTICALS, published 2023):

B1: Ab6 Fab (Fab, V domains shown)
VH: EVQLVQSGAEVKKPGATVKISCKVSGYTFITYWISWVQQAPGKGLEWMGAIDPSDSDARYSPSFQGRVTITADTSTDTAYMELSSLRSEDTAVYYCAKSDPGYSGYSLLYGFDSWGQGTLVTVSS
VL: DVVMTQSPLSLPVTLGQPASISCRSSQSLVQRNGNTYLSWFQQRPGQPPRLLIYQVSNRYSGVPDRFSGSGSGTDFTLKISRVEAEDVGVYYCGQGAHLPLTFGQGTKVEIK
B2: Ab4 Fab (Fab, V domains shown)
VH: EVQLVQSGAEVKKPGATVKISCKVSGYTFITYWISWVQQAPGKGLEWMGAIDPSDSDARYSPSFQGRVTITADTSTDTAYMELSSLRSEDTAVYYCAKSDPGYSGYSLLYGFDSWGQGTLVTVSS
VL: DVVMTQSPLSLPVTLGQPASISCRSSQSLVQRNGNTYLSWYQQRPGQSPRLLIYQVSNRYSGVPDRFSGSGSGTDFTLKISRVEAEDVGVYYCGQGAHLPLTFGQGTKVEIK
B3: Ab10 Fab (Fab, V domains shown)
VH: EVQLVQSGAEVKKPGATVKISCKVSGYTFITYWISWVQQAPGKGLEWMGAIDPSDSDARYSPSFQGRVTITADTSTDTAYMELSSLRSEDTAVYYCAKSDPGYSGYSLLYGFDSWGQGTLVTVSS
VL: DIVMTQSPLSLPVTLGQPASISCRSSQSLVQRNGNTYLSWFQQRPGQPPRLLIYQVSNRYSGVPDRFSGSGSGTDFTLKISRVEAEDVGVYYCGQGAHLPLTFGQGTKVEIK
B4: Ab16 Fab (Fab, V domains shown)
VH: EVQLVQSGAEVKKPGATVKISCKVSGYSFITYWISWVQQAPGKGLEWMGAIDPSDSDARYSPSFQGRVTITADTSTDTAYMELSSLRSEDTAVYYCAKSDPGYSGYSLLYGFDSWGQGTLVTVSS
VL: DVVMTQSPLSLPVTLGQPASISCRSSQSLVQRNGNTYLSWFQQRPGQPPRLLIYQVSNRYSGVPDRFSGSGSGTDFTLKISRVEAEDVGVYYCGQGAHLPLTFGQGTKVEIK
B5: Ab36 Fab (Fab, V domains shown)
VH: EVQLVQSGAEVKKPGATVKISCKVSGYTFITYWISWVQQAPGKGLEWMGAIDPSDSDARYSPSFQGRVTITADKSTDTAYMELSSLRSEDTAVYYCAKSDPGYSGYSLLYGFDSWGQGTLVTVSS
VL: DVVMTQSPLSLPVTLGQPASISCRSSQSLVQRNGNTYLSWFQQRPGQPPRLLIYQVSNRYSGVPDRFSGSGSGTDFTLKISRVEAEDVGVYYCGQGAHLPLTFGQGTKVEIK
B6: Ab37 Fab (Fab, V domains shown)
VH: EVQLVQSGAEVKKPGATVKISCKVSGYTFITYWISWVQQAPGKGLEWMGAIDPSDSDARYSPSFQGRVTITADKSTDTAYMELSSLRSEDTAVYYCAKSDPGYSGYSLLYGFDSWGQGTLVTVSS
VL: DIVMTQSPLSLPVTLGQPASISCRSSQSLVQRNGNTYLSWFQQRPGQSPRLLIYQVSNRYSGVPDRFSGSGSGTDFTLKISRVEAEDVGVYYCGQGAHLPLTFGQGTKVEIK
B7: Ab61 Fab (Fab, V domains shown)
VH: EVQLVQSGAEVKKPGATVKISCKVSGYTFITYWISWVQQAPGKGLEWMGAIDPSDSDARYSPSFQGRVTITADTSTDTAYMELSSLRSEDTAVYYCAKSDPGYSGYSLLYGFDSWGQGTLVTVSS
VL: DVVMTQSPLSLPVTLGQPASISCRSSQSLVQRNANTYLSWYQQRPGQSPRLLIYQVSNRYSGVPDRFSGSGSGTDFTLKISRVEAEDVGVYYCGQGAHLPLTFGQGTKVEIK
B8: Ab44 Fab (Fab, V domains shown)
VH: EVQLVQSGAEVKKPGESLKISCKGSGYSFITYWISWVRQMPGKGLEWMGAIDPSDSDARYSPSFQGQVTISADKSISTAYLQWSSLKASDTAMYYCAKSDPGYSGYSLLYGFDSWGQGTLVTVSS
VL: DVVMTQSPLSLPVTLGQPASISCRSSQSLVQRNGNTYLSWYQQRPGQSPRLLIYQVSNRYSGVPDRFSGSGSGTDFTLKISRVEAEDVGVYYCGQGAHLPLTFGQGTKVEIK
B9: Ab46 Fab (Fab, V domains shown)
VH: EVQLVQSGAEVKKPGESLKISCKGSGYSFITYWISWVRQMPGKGLEWMGAIDPSDSDARYSPSFQGQVTISADKSISTAYLQWSSLKASDTAMYYCAKSDPGYSGYSLLYGFDSWGQGTLVTVSS
VL: DVVMTQSPLSLPVTLGQPASISCRSSQSLVQRNGNTYLSWFQQRPGQPPRLLIYQVSNRYSGVPDRFSGSGSGTDFTLKISRVEAEDVGVYYCGQGAHLPLTFGQGTKVEIK
B10: Ab47 Fab (Fab, V domains shown)
VH: EVQLVQSGAEVKKPGESLKISCKGSGYSFITYWISWVRQMPGKGLEWMGAIDPSDSDARYSPSFQGQVTISADKSISTAYLQWSSLKASDTAMYYCAKSDPGYSGYSLLYGFDSWGQGTLVTVSS
VL: DIVMTQSPLSLPVTLGQPASISCRSSQSLVQRNGNTYLSWFQQRPGQSPRLLIYQVSNRYSGVPDRFSGSGSGTDFTLKISRVEAEDVGVYYCGQGAHLPLTFGQGTKVEIK
B11: Ab54 Fab (Fab, V domains shown)
VH: EVQLVQSGAEVKKPGESLKISCKISGYSFITYWISWVRQMPGKGLEWMGAIDPSDSDARYSPSFQGQVTISADKSISTAYLQWSSLKASDTAMYYCAKSDPGYSGYSLLYGFDSWGQGTLVTVSS
VL: DVVMTQSPLSLPVTLGQPASISCRSSQSLVQRNGNTYLSWYQQRPGQSPRLLIYQVSNRYSGVPDRFSGSGSGTDFTLKISRVEAEDVGVYYCGQGAHLPLTFGQGTKVEIK

target: T1, human NGF-Fc protein (human, UniProt P01138 122-241, limits assumed); assay: BLI (Octet Red), human NGF-Fc captured on anti-human Fc sensors, Fab in solution
T1 construct: not shown: human IgG1 Fc or IgG4 Fc
T1 sequence (P01138 122-241 limits assumed): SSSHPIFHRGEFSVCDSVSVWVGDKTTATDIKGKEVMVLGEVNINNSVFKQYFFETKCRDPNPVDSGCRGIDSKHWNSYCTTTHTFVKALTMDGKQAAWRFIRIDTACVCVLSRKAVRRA
Method: FortéBio BioLayer Interferometry (BLI) technology was chosen as the method for affinity determination by using Octet Red system. NGF is a homodimer protein in its nature form. […] For the purpose of affinity measurement, monovalent Fab fragments of IgG were prepared using Fab preparation kit (Pierce).
After purification, the Fab concentration was determined by OD280 according to the extinction coefficient calculated based on its sequence. […] For each assay, an array of Fab concentrations from about 50 nM to less than 1 nM in kinetic buffer (PALL) were tested by NGF-Fc sensors with the association time of 300 seconds and dissociation time of 1200 seconds. The kinetic data were analyzed using program Data Analysis HT 10.0 according to the manual. All the tests were repeated at least twice in independent assays.

Row | Kd [nM] | koff [s⁻¹] | kon [M⁻¹ s⁻¹] | Molecule
1 | 0.169 | 6.14e-05 | 364000 | Tanezumab Fab
2 | 0.866 | 6.33e-05 | 73100 | B1
3 | 0.0746 | 2.99e-05 | 401000 | B2
4 |  | 7.48e-05 |  | B3
5 | 1.37 | 7.11e-05 | 51700 | B4
6 | 0.258 | 7.35e-05 | 285000 | B5
7 | 3.25 | 5.27e-05 | 16200 | B6
8 | 0.139 | 5.13e-05 | 370000 | B7
9 | 0.704 | 5.9e-05 | 83800 | B8
10 | 2.89 | 0.000107 | 37100 | B9
11 | 3.48 | 0.000142 | 40700 | B10
12 | 0.148 | 4.43e-05 | 300000 | B11
